For test [1], the target named is T1, hCD112R-ECD-His6-Avi (human, UniProt Q6DKI7 42-172, biotinylated (Avi tag) in the ELISA assays).
T1 construct: range 42-172; Expressed in HEK 293F cells; Analyte in SPR, and captured on streptavidin in ELISA; also called biotinylated hCD112R-ECD-His6-Avi; not shown: C-terminal His6-Avi tag
T1 sequence (looked up): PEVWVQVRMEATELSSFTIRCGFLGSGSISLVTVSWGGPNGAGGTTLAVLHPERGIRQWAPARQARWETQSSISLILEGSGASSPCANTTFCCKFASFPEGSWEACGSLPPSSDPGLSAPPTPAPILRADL
Description: ELISA-based competition, biotinylated hCD112R-ECD-His6-Avi on streptavidin, competitor hCD112-ECD-mFc at 0.1 ug/ml. The protocol: Biotinylated hCD112R-ECD-His₆-Avi protein antigen was captured with streptavidin (Sigma) coated 96-well plates (Nunc, MaxiSorp™). H733 serially diluted in 2% milk/PBS containing 0.1 μg/ml of the hCD112-ECD-mFc protein were added to the ELISA plates to test for competitive binding between hCD112R and hCD112. The signal was measured via ligand detection using HRP-anti-mouse IgG secondary Ab (Thermo Fisher Scientific).

In test [2] the target is T1, hCD112R-ECD-His6-Avi. Kind of test: SPR (Biacore T200), multi-cycle; H733 captured on anti-hFc Ab, hCD112R-ECD-His6-Avi injected; 1:1 Langmuir [Cont') B]. As for the experimental part:
Anti-hFc Ab (Thermo Fisher) was covalently attached to surfaces of a CM5 sensor chip using an amine coupling kit (GE Healthcare). Abs at optimal concentrations were captured on the chip and the analytes (hCD112R-ECD-His₆-Avi) at single concentration or serial dilutions were then injected. Binding kinetics were evaluated using a 1:1 Langmuir binding model. The association rates (ka), dissociation rates (kd), and affinity constants (KD) were calculated using Biacore T200 evaluation software.
For orientation: Surface plasmon resonance follows binding to a sensor surface in real time, without labels.

The target in test [3] is T2, human CD112R, full length, expressed on cells (YTS-hCD112R; Jurkat-NFAT-luc-hCD112R) (human, UniProt Q6DKI7 42-326).
T2 sequence (looked up): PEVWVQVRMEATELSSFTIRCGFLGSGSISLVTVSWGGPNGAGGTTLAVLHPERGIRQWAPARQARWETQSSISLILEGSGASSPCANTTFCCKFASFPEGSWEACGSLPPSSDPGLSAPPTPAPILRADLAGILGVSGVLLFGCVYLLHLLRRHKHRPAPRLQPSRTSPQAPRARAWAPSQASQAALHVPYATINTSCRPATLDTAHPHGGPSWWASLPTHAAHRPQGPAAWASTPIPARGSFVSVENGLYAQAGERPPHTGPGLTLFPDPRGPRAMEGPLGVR
Description: cell-based or functional assay.

Test [4] has as its target T3, hCD112R-ECD-mFc W100A variant (human; mouse, UniProt Q6DKI7 42-172).
T3 construct: range 42-172; also called W100A mutation of hCD112R; not shown: Fc domain of mouse IgG2a
T3 sequence (looked up): T1 sequence (looked up) with W59A
Description: SPR (Biacore T200), multi-cycle; H733-hIgG4 captured on anti-hFc Ab, hCD112R-ECD-mFc variant injected (3.125-100 nM); 1:1 Langmuir [Cont') B]. As for the experimental part:
(§1) Kinetic analyses of the bindings of WT or mutated hCD112R-ECD-mFc proteins to H733 and hCD112-ECD were performed on a Biacore T200 instrument (Biacore, GE Healthcare). For the single-cycle SPR analysis, anti-mFc Ab (Thermo Fisher) was covalently attached to surfaces of a CM5 sensor chip using an amine coupling kit (GE Healthcare). WT or mutated hCD112R-ECD mFc fusion proteins were captured on the chip and H733-hIgG4 or hCD112-ECD-hFc were then injected. For the multi-cycle SPR analysis, anti-hFc Ab (Thermo Fisher) was covalently attached to surfaces of a CM5 sensor chip using an amine coupling kit (GE Healthcare). H733-hIgG4 or hCD112-ECD-hFc protein was captured on the chip and 2-fold serially diluted WT or mutated hCD112R-ECD-mFc proteins (3.125-100 nM) were then injected. Binding kinetics were evaluated using a 1:1 Langmuir binding model. The association rates (ka), dissociation rates (kd), and affinity constants (KD) were calculated using Biacore T200 evaluation software.

The target of test [5] is T4, hCD112R-ECD-mFc V90A variant (human; mouse, UniProt Q6DKI7 42-172).
T4 construct: range 42-172; also called V90A mutation of hCD112R; not shown: Fc domain of mouse IgG2a
T4 sequence (looked up): T1 sequence (looked up) with V49A
Described as above. The protocol:
as §1

Test [6] has as its target T5, hCD112R-ECD-mFc E145A variant (human; mouse, UniProt Q6DKI7 42-172).
T5 construct: range 42-172; also called E145A mutation of hCD112R; not shown: Fc domain of mouse IgG2a
T5 sequence (looked up): T1 sequence (looked up) with E104A
Described as above. The protocol: as §1

Residue numbers refer to the chain shown, from its start. Names may count otherwise.

Consider one molecule from US20260152555A1 (HUAHUI HEALTH, published 2026).

B1: H733 (humanized Ab composed of 733-VH-humanV2 and 733-VL-human-C91S) (antibody, human IgG4, V domains shown)
VH: QVQLVQSGAEVKKPGASVKVSCKASGYTFTNYLIEWVRQAPGQGLEWMGVINPGHGFTNYAQKFQGRVTMTRDTSTSTVYMELSSLRSEDTAVYYCARGEWDWYFDVWGQGTTVTVSS
VL: DIQLTQSPSFLSASVGDRVTITCKASQNVGTAVAWYQQKPGKAPKLLIYSTSNRYTGVPSRFSGSGSGTEFTLTISSLQPEDFATYYCQQSSSYPFTFGGGTKVEIK
notes: also called H733-hIgG4; H733 mAb (hIgG4 form)
For orientation: IC50 means the concentration that gives 50% inhibition. For orientation: koff means the rate constant with which the complex falls apart. Low values mean a long-lived complex, high ones a short-lived complex. What is called kon is a measure of how fast the partners come together. A lower kon goes with slower complex formation. In general, Kd refers to the constant that tells how readily two partners part at equilibrium. A lower Kd goes with tighter binding. In the test with hCD112R-ECD-His6-Avi [1], B1 yielded an IC50 of 0.87 µg/mL. In addition, the dissociation rate constant (koff) with hCD112R-ECD-His6-Avi [2] turned out to be 0.000865 s⁻¹; in test [4], 0.000574 s⁻¹; in test [5], 0.000475 s⁻¹; in test [6] it was 0.000418 s⁻¹. Moreover, the on-rate constant (kon) with hCD112R-ECD-His6-Avi [2] is 1.33e+06 M⁻¹ s⁻¹; in test [4], 102000 M⁻¹ s⁻¹; in test [5], 237000 M⁻¹ s⁻¹; in test [6], 296000 M⁻¹ s⁻¹. In addition, the “EC50 of luciferase production, Jurkat-NFAT-luc-hCD112R reporter cells with CHO-OKT3scFv_hCD112 cells” value in test [3] came to 0.39 µg/mL. Moreover, the dissociation constant Kd in test [4] stood at 5.64 nM; in test [5], 2.01 nM; in test [6], 1.42 nM.
